Source: US20150064134A1

Legend:
Experiment in all cases: cell-based or functional assay
MSK1(h) (human) = MSK1(h) (human) (UniProt O75582)
FGFR2(h) (human) = FGFR2(h) (human) (UniProt P21802)
Axl(h) (human) = target: T1, Axl(h) (human) (UniProt P30530)
T1 sequence (looked up): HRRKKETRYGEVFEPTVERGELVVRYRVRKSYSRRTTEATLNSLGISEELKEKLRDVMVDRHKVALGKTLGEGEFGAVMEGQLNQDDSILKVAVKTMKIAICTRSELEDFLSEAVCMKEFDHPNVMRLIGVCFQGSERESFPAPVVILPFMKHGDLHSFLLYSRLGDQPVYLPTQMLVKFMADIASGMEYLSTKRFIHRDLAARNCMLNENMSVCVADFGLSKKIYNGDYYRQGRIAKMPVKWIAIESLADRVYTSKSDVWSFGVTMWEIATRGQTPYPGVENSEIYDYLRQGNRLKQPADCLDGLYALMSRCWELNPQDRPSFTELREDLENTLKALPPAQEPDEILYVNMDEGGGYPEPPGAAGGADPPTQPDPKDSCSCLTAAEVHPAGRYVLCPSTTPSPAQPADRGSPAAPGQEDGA

[1] = target: CDK9/cyclin T1(h) (human) (UniProt P50750)
Fes(h) (human) = Fes(h) (human) (UniProt P07332)
SIK(h) (human) = SIK(h) (human) (UniProt P57059)
DMPK(h) (human) = DMPK(h) (human) (UniProt Q09013)
Lyn(h) (human) = Lyn(h) (human) (UniProt P07948)
PDGFRα(h) (human) = PDGFRα(h) (human) (UniProt P16234)
Sequence of PDGFRα(h) (human) (P16234 550-1089 limits assumed): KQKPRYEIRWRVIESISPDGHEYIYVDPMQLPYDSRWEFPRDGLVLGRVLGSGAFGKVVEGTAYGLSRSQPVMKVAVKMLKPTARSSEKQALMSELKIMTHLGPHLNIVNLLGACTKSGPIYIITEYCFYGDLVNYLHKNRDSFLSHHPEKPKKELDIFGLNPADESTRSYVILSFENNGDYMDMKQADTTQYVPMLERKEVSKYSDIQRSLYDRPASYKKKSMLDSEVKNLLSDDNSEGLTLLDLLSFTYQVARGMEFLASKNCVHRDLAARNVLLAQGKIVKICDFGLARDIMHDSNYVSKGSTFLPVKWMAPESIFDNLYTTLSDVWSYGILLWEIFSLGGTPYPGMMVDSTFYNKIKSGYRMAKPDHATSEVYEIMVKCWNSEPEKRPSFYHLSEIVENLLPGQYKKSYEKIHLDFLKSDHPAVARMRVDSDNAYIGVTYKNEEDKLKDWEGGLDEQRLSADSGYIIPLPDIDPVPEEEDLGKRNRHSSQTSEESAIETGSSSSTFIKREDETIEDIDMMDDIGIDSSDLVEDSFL

IR(h), activated (human) = IR(h), activated (human) (UniProt P06213)
Sequence of IR(h), activated (human) (P06213 1005-1310 limits assumed): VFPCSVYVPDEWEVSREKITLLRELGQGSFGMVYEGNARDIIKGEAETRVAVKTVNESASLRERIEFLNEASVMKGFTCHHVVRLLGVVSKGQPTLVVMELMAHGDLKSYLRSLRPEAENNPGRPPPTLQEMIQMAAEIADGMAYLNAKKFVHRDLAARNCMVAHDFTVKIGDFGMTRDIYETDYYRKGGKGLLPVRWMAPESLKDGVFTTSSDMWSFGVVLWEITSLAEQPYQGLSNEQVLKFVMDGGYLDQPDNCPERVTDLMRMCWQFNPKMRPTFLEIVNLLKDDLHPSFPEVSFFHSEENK

BRK(h) (human) = BRK(h) (human) (UniProt Q13882)
PKBβ(h) (human) = PKBβ(h) (human) (UniProt P31751)
Sequence of PKBβ(h) (human) (P31751 whole entry): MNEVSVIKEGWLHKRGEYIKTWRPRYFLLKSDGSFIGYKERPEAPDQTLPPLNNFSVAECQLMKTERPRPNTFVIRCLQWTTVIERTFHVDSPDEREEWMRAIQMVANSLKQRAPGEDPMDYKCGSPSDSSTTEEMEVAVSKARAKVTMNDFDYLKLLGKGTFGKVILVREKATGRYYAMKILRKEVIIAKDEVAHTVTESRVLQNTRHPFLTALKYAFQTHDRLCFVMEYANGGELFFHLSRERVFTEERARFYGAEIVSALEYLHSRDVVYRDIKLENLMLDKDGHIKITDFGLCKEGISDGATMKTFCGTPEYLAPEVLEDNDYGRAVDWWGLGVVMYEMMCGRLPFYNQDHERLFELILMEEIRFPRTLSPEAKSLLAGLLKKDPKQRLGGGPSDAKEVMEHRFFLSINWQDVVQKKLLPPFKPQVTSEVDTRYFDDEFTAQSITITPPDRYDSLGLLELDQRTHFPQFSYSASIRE

MRCKβ(h) (human) = MRCKβ(h) (human) (UniProt Q9Y5S2)
Sequence of MRCKβ(h) (human) (Q9Y5S2 1-473 limits assumed): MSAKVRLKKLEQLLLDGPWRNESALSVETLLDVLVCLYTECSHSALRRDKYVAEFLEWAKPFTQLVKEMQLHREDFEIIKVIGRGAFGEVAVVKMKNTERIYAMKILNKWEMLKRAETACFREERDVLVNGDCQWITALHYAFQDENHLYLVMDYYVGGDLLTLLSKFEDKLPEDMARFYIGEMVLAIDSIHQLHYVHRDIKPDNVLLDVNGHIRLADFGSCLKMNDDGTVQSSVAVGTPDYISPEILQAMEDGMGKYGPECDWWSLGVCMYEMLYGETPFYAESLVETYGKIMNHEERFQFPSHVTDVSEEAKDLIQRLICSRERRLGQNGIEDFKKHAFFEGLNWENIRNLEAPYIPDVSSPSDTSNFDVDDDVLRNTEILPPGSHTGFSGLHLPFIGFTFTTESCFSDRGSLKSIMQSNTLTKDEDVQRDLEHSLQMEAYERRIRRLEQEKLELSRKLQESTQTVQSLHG

EphB1(h) (human) = EphB1(h) (human) (UniProt P54762)
Sequence of EphB1(h) (human) (P54762 564-984 limits assumed): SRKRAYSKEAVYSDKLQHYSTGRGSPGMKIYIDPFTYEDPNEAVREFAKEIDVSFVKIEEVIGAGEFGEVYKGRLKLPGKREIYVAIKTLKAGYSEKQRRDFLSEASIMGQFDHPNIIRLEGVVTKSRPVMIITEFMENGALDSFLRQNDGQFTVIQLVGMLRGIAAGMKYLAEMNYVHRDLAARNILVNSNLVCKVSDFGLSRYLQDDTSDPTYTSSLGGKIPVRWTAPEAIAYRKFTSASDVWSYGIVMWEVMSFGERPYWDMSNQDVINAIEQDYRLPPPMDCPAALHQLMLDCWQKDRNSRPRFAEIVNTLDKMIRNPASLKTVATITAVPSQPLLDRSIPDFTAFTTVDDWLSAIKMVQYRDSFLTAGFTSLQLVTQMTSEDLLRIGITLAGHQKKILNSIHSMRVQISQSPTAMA

SRPK1(h) (human) = SRPK1(h) (human) (UniProt Q96SB4)
Rsk1(h) (human) = Rsk1(h) (human) (UniProt Q15418)
Sequence of Rsk1(h) (human) (Q15418 whole entry): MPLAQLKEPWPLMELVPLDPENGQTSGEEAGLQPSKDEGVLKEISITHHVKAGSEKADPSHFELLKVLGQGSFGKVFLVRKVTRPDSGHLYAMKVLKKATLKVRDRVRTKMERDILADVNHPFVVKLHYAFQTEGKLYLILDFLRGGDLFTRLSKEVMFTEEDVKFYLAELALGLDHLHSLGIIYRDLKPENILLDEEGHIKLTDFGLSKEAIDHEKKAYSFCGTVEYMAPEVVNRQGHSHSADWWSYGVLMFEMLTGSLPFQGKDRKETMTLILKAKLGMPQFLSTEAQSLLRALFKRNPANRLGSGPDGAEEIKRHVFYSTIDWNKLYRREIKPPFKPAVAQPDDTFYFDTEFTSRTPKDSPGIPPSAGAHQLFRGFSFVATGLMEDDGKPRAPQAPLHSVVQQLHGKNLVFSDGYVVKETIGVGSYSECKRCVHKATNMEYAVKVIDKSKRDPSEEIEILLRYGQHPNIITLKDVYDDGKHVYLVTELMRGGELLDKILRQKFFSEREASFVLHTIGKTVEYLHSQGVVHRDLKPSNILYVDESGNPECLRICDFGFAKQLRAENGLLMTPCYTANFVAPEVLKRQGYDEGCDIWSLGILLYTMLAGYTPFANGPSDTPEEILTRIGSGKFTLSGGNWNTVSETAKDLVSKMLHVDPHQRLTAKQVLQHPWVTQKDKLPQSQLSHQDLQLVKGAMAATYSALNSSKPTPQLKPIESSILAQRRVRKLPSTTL

MELK(h) (human) = MELK(h) (human) (UniProt Q14680)
PAK2(h) (human) = PAK2(h) (human) (UniProt Q13177)
Sequence of PAK2(h) (human) (Q13177 whole entry): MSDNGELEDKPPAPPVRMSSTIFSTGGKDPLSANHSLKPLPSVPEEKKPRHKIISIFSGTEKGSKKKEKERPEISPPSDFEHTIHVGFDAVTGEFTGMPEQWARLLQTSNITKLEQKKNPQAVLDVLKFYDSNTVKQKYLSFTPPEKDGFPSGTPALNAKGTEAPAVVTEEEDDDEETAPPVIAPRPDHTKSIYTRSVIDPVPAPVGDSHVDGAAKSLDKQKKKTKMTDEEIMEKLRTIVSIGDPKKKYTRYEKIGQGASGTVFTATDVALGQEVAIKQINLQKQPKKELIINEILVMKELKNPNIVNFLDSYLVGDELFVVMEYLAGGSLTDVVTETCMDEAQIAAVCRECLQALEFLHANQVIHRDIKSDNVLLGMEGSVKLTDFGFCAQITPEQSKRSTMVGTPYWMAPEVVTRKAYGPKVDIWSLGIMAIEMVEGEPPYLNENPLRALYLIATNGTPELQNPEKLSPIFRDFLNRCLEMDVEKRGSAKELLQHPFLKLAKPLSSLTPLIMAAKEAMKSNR

PKCµ(h) (human) = target: T2, PKCµ(h) (human) (UniProt Q15139)
T2 sequence (looked up): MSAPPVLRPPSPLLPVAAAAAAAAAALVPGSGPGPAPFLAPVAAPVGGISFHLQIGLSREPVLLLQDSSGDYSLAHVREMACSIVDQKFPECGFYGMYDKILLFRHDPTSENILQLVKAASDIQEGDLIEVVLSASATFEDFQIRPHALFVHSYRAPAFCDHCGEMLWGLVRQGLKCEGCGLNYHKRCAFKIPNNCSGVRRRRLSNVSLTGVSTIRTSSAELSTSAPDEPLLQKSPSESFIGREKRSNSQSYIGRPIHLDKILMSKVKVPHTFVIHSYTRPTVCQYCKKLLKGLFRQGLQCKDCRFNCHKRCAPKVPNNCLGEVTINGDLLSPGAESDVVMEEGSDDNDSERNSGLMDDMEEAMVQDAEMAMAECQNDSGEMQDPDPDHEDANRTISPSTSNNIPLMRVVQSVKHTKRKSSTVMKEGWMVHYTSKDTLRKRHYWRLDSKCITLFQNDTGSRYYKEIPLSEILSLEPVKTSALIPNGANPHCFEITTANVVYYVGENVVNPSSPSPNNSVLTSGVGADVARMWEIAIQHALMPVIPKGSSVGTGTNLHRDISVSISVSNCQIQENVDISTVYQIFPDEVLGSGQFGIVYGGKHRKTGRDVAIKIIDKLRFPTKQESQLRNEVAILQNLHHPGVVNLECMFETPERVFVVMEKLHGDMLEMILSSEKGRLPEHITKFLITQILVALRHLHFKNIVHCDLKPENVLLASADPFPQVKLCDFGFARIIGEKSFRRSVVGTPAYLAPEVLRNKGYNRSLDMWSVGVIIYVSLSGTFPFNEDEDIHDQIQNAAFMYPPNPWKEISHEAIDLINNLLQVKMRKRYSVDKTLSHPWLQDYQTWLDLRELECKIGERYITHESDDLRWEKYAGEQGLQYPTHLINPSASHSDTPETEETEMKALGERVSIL

GCK(h) (human) = target: T3, GCK(h) (human) (UniProt Q12851)
T3 sequence (looked up): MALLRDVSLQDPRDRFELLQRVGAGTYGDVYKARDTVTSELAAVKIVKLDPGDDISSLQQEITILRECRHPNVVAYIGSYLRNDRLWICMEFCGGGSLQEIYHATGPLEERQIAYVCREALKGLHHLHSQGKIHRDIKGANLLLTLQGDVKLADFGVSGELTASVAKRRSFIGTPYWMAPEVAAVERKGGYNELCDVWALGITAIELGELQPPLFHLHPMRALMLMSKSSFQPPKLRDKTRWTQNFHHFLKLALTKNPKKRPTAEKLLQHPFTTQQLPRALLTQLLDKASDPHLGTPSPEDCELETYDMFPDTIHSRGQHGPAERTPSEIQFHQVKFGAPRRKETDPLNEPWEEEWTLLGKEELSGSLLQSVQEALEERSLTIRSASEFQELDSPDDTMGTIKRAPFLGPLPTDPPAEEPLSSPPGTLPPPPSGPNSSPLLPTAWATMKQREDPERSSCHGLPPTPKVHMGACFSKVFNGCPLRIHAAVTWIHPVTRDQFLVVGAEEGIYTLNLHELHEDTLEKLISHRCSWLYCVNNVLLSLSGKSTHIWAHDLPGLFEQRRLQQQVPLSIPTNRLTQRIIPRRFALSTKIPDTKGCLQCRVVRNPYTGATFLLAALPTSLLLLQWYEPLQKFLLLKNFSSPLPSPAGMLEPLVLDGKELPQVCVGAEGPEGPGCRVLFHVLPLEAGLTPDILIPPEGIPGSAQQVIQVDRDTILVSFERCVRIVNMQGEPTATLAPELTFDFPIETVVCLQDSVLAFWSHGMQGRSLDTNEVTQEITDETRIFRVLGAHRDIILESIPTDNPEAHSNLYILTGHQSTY

Sequence of FGFR2(h) (human) (P21802 456-770 limits assumed): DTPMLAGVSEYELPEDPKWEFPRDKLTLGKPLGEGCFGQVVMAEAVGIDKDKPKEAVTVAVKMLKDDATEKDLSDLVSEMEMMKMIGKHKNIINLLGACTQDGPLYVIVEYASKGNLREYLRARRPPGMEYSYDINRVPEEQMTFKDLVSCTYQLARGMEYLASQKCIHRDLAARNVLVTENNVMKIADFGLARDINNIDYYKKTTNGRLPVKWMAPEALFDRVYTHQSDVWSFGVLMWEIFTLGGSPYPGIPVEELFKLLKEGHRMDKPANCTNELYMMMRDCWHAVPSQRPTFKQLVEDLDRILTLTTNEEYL

For MMI-0300 (peptide), the % activity at 100 µM (MSK1(h) (human)) was 32%, the % activity at 100 µM (FGFR2(h) (human)) was 14% and the % activity at 100 µM (Axl(h) (human)) was 52%. The % activity at 100 µM [1] was 91%, the % activity at 100 µM (Fes(h) (human)) was 20% and the % activity at 100 µM (SIK(h) (human)) was 66%. For the same substance, the % activity at 100 µM (DMPK(h) (human)) was 59%, the % activity at 100 µM (Lyn(h) (human)) was 69% and the % activity at 100 µM (PDGFRα(h) (human)) was 65%. It also gave a % activity at 100 µM (IR(h), activated (human)) of 79%, a % activity at 100 µM (BRK(h) (human)) of 35% and a % activity at 100 µM (PKBβ(h) (human)) of 84%. For the same substance, the % activity at 100 µM (MRCKβ(h) (human)) was 83%, the % activity at 100 µM (EphB1(h) (human)) was 44% and the % activity at 100 µM (SRPK1(h) (human)) was 90%. For the same substance, the % activity at 100 µM (Rsk1(h) (human)) was 46%, the % activity at 100 µM (MELK(h) (human)) was 16% and the % activity at 100 µM (PAK2(h) (human)) was 65%. It also gave a % activity at 100 µM (PKCµ(h) (human)) of 22% and a % activity at 100 µM (GCK(h) (human)) of 70%.
Substance MMI-0400 (peptide) has a % activity at 100 µM (MSK1(h) (human)) of 28%, a % activity at 100 µM (FGFR2(h) (human)) of 18% and a % activity at 100 µM (Axl(h) (human)) of 41%. For the same substance, the % activity at 100 µM [1] was 235%, the % activity at 100 µM (Fes(h) (human)) was 16% and the % activity at 100 µM (SIK(h) (human)) was 68%. It also gave a % activity at 100 µM (DMPK(h) (human)) of 54%, a % activity at 100 µM (Lyn(h) (human)) of 3% and a % activity at 100 µM (PDGFRα(h) (human)) of 40%. It also gave a % activity at 100 µM (IR(h), activated (human)) of 59%, a % activity at 100 µM (BRK(h) (human)) of 18% and a % activity at 100 µM (PKBβ(h) (human)) of 98%. For the same substance, the % activity at 100 µM (MRCKβ(h) (human)) was 71%, the % activity at 100 µM (EphB1(h) (human)) was 58% and the % activity at 100 µM (SRPK1(h) (human)) was 96%. It also gave a % activity at 100 µM (Rsk1(h) (human)) of 54%, a % activity at 100 µM (MELK(h) (human)) of 17% and a % activity at 100 µM (PAK2(h) (human)) of 59%. It also gave a % activity at 100 µM (PKCµ(h) (human)) of 14% and a % activity at 100 µM (GCK(h) (human)) of 66%.
In the case of MMI-0500 (peptide), the % activity at 100 µM (MSK1(h) (human)) is reported as 8%, the % activity at 100 µM (FGFR2(h) (human)) is reported as 12% and the % activity at 100 µM (Axl(h) (human)) is reported as 12%. It also gave a % activity at 100 µM [1] of 6%, a % activity at 100 µM (Fes(h) (human)) of 23% and a % activity at 100 µM (SIK(h) (human)) of 40%. It also gave a % activity at 100 µM (DMPK(h) (human)) of 12%, a % activity at 100 µM (Lyn(h) (human)) of 31% and a % activity at 100 µM (PDGFRα(h) (human)) of 40%. It also gave a % activity at 100 µM (IR(h), activated (human)) of 90%, a % activity at 100 µM (BRK(h) (human)) of 41% and a % activity at 100 µM (PKBβ(h) (human)) of 21%. For the same substance, the % activity at 100 µM (MRCKβ(h) (human)) was -10%, the % activity at 100 µM (EphB1(h) (human)) was 37% and the % activity at 100 µM (SRPK1(h) (human)) was 80%. For the same substance, the % activity at 100 µM (Rsk1(h) (human)) was 34%, the % activity at 100 µM (MELK(h) (human)) was 0% and the % activity at 100 µM (PAK2(h) (human)) was 44%. For the same substance, the % activity at 100 µM (PKCµ(h) (human)) was 10% and the % activity at 100 µM (GCK(h) (human)) was 30%.
